Experimental data: patent publication US20130011380A1

Assays:
Experiment in all cases: anti-Flag IP-MS, mES nuclear extract
Smarca4 (mouse) = Smarca4 (mouse) (UniProt Q3TKT4)
Smarca1 (mouse) = Smarca1 (mouse) (UniProt Q6PGB8)
Pum1 (mouse) = Pum1 (mouse) (UniProt Q80U78)
Psmd2 (mouse) = Psmd2 (mouse) (UniProt Q8VDM4)
Ints3 (mouse) = Ints3 (mouse) (UniProt Q7TPD0)
Hspd1 (mouse) = Hspd1 (mouse) (UniProt P63038)
Rbm25 (mouse) = Rbm25 (mouse) (UniProt B2RY56)
Dnaja1 (mouse) = Dnaja1 (mouse) (UniProt P63037)
Seh1l (mouse) = Seh1l (mouse) (UniProt Q8R2U0)
Kif11 (mouse) = Kif11 (mouse) (UniProt Q6P9P6)
Tcp1 (mouse) = Tcp1 (mouse) (UniProt P11983)
Rfc2 (mouse) = Rfc2 (mouse) (UniProt Q9WUK4)
Sequence of Rfc2 (mouse) (Q9WUK4 whole entry): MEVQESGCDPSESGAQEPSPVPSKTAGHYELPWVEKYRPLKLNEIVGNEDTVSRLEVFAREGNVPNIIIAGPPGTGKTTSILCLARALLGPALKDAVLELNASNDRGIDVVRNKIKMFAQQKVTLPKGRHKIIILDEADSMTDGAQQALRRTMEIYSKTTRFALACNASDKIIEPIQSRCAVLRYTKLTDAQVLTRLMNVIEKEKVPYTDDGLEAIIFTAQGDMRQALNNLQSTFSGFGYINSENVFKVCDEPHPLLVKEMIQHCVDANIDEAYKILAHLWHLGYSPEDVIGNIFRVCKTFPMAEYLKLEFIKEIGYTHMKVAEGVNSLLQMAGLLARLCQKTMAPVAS

Rif1 (mouse) = Rif1 (mouse) (UniProt Q6PR54)
Nup214 (mouse) = Nup214 (mouse) (UniProt Q80U93)
Ddx20 (mouse) = Ddx20 (mouse) (UniProt Q9JJY4)
Mcm6 (mouse) = Mcm6 (mouse) (UniProt P97311)
Sequence of Mcm6 (mouse) (P97311 whole entry): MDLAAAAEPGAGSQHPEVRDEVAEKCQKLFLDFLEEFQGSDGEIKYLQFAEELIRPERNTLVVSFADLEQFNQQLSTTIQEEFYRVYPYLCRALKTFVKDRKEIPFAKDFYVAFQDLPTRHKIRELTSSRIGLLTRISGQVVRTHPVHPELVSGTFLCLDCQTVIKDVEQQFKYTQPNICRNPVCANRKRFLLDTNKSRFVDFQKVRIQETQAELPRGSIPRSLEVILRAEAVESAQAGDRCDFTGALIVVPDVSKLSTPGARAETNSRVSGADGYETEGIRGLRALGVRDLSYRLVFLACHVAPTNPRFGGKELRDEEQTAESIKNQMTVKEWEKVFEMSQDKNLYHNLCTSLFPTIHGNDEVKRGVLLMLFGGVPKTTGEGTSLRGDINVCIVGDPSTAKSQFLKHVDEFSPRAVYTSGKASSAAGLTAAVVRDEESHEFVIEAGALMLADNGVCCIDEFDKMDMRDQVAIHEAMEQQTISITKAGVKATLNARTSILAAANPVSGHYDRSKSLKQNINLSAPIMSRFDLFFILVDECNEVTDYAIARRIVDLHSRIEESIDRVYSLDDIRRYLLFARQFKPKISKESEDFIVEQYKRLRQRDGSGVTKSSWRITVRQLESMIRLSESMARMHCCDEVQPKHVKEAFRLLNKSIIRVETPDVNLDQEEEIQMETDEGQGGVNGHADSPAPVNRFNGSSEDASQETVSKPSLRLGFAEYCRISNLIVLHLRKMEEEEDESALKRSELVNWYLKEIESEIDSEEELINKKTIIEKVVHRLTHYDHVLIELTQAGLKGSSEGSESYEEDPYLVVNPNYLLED

Nars (mouse) = Nars (mouse) (UniProt Q8BP47)
Akap8 (mouse) = Akap8 (mouse) (UniProt Q9DBR0)
Lmnb2 (mouse) = Lmnb2 (mouse) (UniProt P21619)
Ruvbl2 (mouse) = Ruvbl2 (mouse) (UniProt Q9WTM5)
Dnaja3 (mouse) = Dnaja3 (mouse) (UniProt Q99M87)
[1] = biological target: LOC100045999; Ran (mouse) (UniProt P62827)
Smc3 (mouse) = Smc3 (mouse) (UniProt Q9CW03)
Sall4 (mouse) = Sall4 (mouse) (UniProt Q8BX22)
Uba1 (mouse) = Uba1 (mouse) (UniProt Q02053)
Mllt4 (mouse) = Mllt4 (mouse) (UniProt Q9QZQ1)
Pou5f1 (mouse) = Pou5f1 (mouse) (UniProt P20263)
Sfrs17b (mouse) = Sfrs17b (mouse) (UniProt A2A3V1)
Pcnt (mouse) = Pcnt (mouse) (UniProt P48725)
Cpsf1 (mouse) = Cpsf1 (mouse) (UniProt Q9EPU4)
Abce1 (mouse) = Abce1 (mouse) (UniProt P61222)
Dars (mouse) = Dars (mouse) (UniProt Q922B2)
Hells (mouse) = Hells (mouse) (UniProt Q60848)
Rps6ka1 (mouse) = Rps6ka1 (mouse) (UniProt P18653)
Xpo1 (mouse) = Xpo1 (mouse) (UniProt Q6P5F9)
Alpl (mouse) = Alpl (mouse) (UniProt P09242)
Eef2 (mouse) = Eef2 (mouse) (UniProt P58252)
Rad21 (mouse) = Rad21 (mouse) (UniProt Q61550)
Sequence of Rad21 (mouse) (Q61550 whole entry): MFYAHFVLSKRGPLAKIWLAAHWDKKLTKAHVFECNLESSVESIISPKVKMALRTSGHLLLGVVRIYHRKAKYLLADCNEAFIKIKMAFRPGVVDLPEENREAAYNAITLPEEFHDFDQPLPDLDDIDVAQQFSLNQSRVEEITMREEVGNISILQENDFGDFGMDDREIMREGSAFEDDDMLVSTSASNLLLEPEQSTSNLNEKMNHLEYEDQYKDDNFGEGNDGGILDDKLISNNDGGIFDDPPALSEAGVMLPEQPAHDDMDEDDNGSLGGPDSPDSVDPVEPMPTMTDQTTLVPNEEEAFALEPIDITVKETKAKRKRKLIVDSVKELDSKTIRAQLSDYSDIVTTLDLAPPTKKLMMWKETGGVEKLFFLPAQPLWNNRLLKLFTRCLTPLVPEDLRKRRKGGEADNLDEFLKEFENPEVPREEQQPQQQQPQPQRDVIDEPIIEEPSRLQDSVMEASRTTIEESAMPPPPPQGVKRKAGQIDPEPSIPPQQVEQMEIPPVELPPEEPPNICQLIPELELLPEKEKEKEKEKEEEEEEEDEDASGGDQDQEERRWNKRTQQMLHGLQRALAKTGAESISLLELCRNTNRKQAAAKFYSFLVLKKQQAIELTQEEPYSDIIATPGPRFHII

Aff4 (mouse) = Aff4 (mouse) (UniProt Q9ESC8)
Las1l (mouse) = Las1l (mouse) (UniProt A2BE28)

Sequence of Pum1 (mouse) (Q80U78 2-1189 limits assumed): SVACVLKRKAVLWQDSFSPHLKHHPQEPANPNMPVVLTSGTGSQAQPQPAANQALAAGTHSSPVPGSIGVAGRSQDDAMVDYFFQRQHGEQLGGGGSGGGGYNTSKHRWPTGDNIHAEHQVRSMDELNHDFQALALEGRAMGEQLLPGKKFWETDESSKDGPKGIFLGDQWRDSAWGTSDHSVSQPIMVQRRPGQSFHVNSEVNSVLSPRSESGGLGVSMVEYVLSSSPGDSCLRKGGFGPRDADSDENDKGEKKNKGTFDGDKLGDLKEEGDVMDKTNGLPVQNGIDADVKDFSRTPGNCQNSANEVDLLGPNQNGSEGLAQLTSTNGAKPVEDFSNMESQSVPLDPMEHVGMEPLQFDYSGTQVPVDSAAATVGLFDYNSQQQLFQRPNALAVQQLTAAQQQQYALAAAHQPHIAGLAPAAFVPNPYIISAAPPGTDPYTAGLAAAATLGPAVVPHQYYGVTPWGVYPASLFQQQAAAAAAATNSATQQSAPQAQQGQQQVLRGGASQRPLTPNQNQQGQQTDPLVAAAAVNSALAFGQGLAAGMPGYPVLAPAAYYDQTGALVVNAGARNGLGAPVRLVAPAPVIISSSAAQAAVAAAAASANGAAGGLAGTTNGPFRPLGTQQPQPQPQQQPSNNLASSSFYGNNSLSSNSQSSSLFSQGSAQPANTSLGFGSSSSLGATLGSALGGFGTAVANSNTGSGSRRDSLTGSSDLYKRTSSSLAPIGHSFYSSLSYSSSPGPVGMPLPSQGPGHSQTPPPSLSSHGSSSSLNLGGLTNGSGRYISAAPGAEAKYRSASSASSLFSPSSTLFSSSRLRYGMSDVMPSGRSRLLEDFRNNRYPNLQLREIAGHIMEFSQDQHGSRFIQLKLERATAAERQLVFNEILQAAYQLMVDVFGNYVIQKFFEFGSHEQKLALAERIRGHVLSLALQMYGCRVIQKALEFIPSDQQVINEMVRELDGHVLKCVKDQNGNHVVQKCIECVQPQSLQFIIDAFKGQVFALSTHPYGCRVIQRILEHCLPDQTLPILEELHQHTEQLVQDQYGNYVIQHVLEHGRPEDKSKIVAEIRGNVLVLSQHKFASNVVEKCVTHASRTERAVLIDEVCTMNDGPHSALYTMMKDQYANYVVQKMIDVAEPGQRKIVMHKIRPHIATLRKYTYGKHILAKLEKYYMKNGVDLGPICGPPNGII
Sequence of Rbm25 (mouse) (B2RY56 whole entry): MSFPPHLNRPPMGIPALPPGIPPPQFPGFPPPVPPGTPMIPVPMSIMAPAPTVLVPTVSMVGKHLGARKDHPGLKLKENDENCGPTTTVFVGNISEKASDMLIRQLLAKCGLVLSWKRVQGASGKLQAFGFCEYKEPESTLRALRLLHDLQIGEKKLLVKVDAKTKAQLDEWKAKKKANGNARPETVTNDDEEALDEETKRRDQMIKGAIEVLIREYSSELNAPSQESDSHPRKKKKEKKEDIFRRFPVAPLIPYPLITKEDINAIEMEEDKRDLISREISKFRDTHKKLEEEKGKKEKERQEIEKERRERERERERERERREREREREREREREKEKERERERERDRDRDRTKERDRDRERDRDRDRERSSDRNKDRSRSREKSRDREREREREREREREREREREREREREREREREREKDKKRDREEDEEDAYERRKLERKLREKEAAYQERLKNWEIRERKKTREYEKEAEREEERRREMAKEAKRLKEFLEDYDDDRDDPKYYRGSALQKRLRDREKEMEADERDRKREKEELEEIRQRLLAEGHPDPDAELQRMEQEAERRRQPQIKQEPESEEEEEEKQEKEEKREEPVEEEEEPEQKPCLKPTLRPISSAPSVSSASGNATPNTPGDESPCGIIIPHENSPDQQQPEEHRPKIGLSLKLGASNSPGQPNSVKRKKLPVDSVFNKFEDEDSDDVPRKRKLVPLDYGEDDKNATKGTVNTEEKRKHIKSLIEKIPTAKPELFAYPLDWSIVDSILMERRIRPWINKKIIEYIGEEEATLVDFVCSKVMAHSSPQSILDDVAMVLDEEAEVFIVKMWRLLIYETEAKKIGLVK
Sequence of Smarca1 (mouse) (Q6PGB8 whole entry): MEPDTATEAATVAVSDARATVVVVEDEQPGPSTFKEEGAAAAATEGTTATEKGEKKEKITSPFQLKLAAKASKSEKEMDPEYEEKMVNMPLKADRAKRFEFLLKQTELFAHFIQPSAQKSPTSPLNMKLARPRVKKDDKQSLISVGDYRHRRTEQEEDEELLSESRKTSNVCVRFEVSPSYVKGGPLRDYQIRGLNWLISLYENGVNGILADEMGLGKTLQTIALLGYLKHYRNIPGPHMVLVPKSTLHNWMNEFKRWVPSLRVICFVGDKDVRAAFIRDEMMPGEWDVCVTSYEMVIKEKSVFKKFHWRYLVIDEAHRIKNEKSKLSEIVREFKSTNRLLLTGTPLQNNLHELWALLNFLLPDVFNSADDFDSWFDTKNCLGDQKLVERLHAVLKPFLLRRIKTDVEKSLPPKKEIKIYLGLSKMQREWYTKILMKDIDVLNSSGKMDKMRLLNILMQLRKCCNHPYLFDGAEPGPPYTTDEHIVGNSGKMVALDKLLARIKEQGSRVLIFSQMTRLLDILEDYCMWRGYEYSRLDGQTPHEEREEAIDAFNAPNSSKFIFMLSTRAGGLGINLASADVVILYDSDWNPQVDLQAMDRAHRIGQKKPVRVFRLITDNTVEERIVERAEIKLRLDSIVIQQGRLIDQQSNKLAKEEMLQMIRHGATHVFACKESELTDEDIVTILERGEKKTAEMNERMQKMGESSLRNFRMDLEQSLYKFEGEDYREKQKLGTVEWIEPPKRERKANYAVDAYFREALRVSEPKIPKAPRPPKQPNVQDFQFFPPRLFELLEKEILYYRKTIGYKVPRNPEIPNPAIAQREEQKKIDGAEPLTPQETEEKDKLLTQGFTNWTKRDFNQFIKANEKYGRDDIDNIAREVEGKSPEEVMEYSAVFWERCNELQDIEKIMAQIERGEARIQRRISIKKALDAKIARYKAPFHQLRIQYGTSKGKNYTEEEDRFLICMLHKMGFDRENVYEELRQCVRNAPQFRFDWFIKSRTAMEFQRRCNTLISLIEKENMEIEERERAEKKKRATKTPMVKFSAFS
Sequence of human AID containing two tandem Flag tags (Flag-human AID) (Q9GZX7 whole entry): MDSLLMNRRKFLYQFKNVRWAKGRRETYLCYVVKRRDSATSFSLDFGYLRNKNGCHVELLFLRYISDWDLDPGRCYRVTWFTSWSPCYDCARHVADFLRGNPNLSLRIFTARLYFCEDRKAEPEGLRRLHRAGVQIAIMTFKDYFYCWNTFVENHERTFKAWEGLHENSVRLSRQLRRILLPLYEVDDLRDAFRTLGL

## 2x Flag tag only (control) (peptide)
Smarca4 (mouse)
  Nucleus peptide: 2 peptides
  Nucleus spectra: 2 spectra
Smarca1 (mouse)
  Nucleus peptide: 2 peptides
  Nucleus spectra: 3 spectra
Pum1 (mouse)
  Nucleus peptide: 0 peptides
  Nucleus spectra: 0 spectra
Psmd2 (mouse)
  Nucleus peptide: 1 peptides
  Nucleus spectra: 1 spectra
Ints3 (mouse)
  Nucleus peptide: 0 peptides
  Nucleus spectra: 0 spectra
Hspd1 (mouse)
  Nucleus peptide: 5 peptides
  Nucleus spectra: 11 spectra
Rbm25 (mouse)
  Nucleus peptide: 3 peptides
  Nucleus spectra: 7 spectra
Dnaja1 (mouse)
  Nucleus peptide: 3 peptides
  Nucleus spectra: 5 spectra
Seh1l (mouse)
  Nucleus peptide: 2 peptides
  Nucleus spectra: 4 spectra
Kif11 (mouse)
  Nucleus peptide: 0 peptides
  Nucleus spectra: 0 spectra
Tcp1 (mouse)
  Nucleus peptide: 1 peptides
  Nucleus spectra: 2 spectra
Rfc2 (mouse)
  Nucleus peptide: 0 peptides
  Nucleus spectra: 0 spectra
Rif1 (mouse)
  Nucleus peptide: 8 peptides
  Nucleus spectra: 17 spectra
Nup214 (mouse)
  Nucleus peptide: 7 peptides
  Nucleus spectra: 11 spectra
Ddx20 (mouse)
  Nucleus peptide: 1 peptides
  Nucleus spectra: 1 spectra
Mcm6 (mouse)
  Nucleus peptide: 8 peptides
  Nucleus spectra: 12 spectra
Nars (mouse)
  Nucleus peptide: 3 peptides
  Nucleus spectra: 3 spectra
Akap8 (mouse)
  Nucleus peptide: 0 peptides
  Nucleus spectra: 0 spectra
Lmnb2 (mouse)
  Nucleus peptide: 3 peptides
  Nucleus spectra: 5 spectra
Ruvbl2 (mouse)
  Nucleus peptide: 4 peptides
  Nucleus spectra: 10 spectra
Dnaja3 (mouse)
  Nucleus peptide: 1 peptides
  Nucleus spectra: 2 spectra
[1]
  Nucleus peptide: 1 peptides
  Nucleus spectra: 2 spectra
Smc3 (mouse)
  Nucleus peptide: 0 peptides
  Nucleus spectra: 0 spectra
Sall4 (mouse)
  Nucleus peptide: 1 peptides
  Nucleus spectra: 1 spectra
Uba1 (mouse)
  Nucleus peptide: 3 peptides
  Nucleus spectra: 5 spectra
Mllt4 (mouse)
  Nucleus peptide: 1 peptides
  Nucleus spectra: 2 spectra
Pou5f1 (mouse)
  Nucleus peptide: 2 peptides
  Nucleus spectra: 3 spectra
Sfrs17b (mouse)
  Nucleus peptide: 2 peptides
  Nucleus spectra: 2 spectra
Pcnt (mouse)
  Nucleus peptide: 0 peptides
  Nucleus spectra: 0 spectra
Cpsf1 (mouse)
  Nucleus peptide: 0 peptides
  Nucleus spectra: 0 spectra
Abce1 (mouse)
  Nucleus peptide: 3 peptides
  Nucleus spectra: 3 spectra
Dars (mouse)
  Nucleus peptide: 1 peptides
  Nucleus spectra: 2 spectra
Hells (mouse)
  Nucleus peptide: 1 peptides
  Nucleus spectra: 1 spectra
Rps6ka1 (mouse)
  Nucleus peptide: 2 peptides
  Nucleus spectra: 3 spectra
Xpo1 (mouse)
  Nucleus peptide: 0 peptides
  Nucleus spectra: 0 spectra
Alpl (mouse)
  Nucleus peptide: 5 peptides
  Nucleus spectra: 10 spectra
Eef2 (mouse)
  Nucleus peptide: 6 peptides
  Nucleus spectra: 9 spectra
Rad21 (mouse)
  Nucleus peptide: 0 peptides
  Nucleus spectra: 0 spectra
Aff4 (mouse)
  Nucleus peptide: 0 peptides
  Nucleus spectra: 0 spectra
Las1l (mouse)
  Nucleus peptide: 2 peptides
  Nucleus spectra: 3 spectra

## human AID containing two tandem Flag tags (Flag-human AID) (from UniProt Q9GZX7 1-198) (enzyme)
Smarca4 (mouse)
  Nucleus peptide: 5 peptides
  Nucleus spectra: 8 spectra
Smarca1 (mouse)
  Nucleus peptide: 7 peptides
  Nucleus spectra: 14 spectra
Pum1 (mouse)
  Nucleus peptide: 2 peptides
  Nucleus spectra: 5 spectra
Psmd2 (mouse)
  Nucleus peptide: 5 peptides
  Nucleus spectra: 12 spectra
Ints3 (mouse)
  Nucleus peptide: 4 peptides
  Nucleus spectra: 5 spectra
Hspd1 (mouse)
  Nucleus peptide: 16 peptides
  Nucleus spectra: 44 spectra
Rbm25 (mouse)
  Nucleus peptide: 6 peptides
  Nucleus spectra: 15 spectra
Dnaja1 (mouse)
  Nucleus peptide: 13 peptides
  Nucleus spectra: 49 spectra
Seh1l (mouse)
  Nucleus peptide: 5 peptides
  Nucleus spectra: 13 spectra
Kif11 (mouse)
  Nucleus peptide: 3 peptides
  Nucleus spectra: 4 spectra
Tcp1 (mouse)
  Nucleus peptide: 3 peptides
  Nucleus spectra: 5 spectra
Rfc2 (mouse)
  Nucleus peptide: 3 peptides
  Nucleus spectra: 8 spectra
Rif1 (mouse)
  Nucleus peptide: 37 peptides
  Nucleus spectra: 109 spectra
Nup214 (mouse)
  Nucleus peptide: 13 peptides
  Nucleus spectra: 29 spectra
Ddx20 (mouse)
  Nucleus peptide: 3 peptides
  Nucleus spectra: 7 spectra
Mcm6 (mouse)
  Nucleus peptide: 13 peptides
  Nucleus spectra: 29 spectra
Nars (mouse)
  Nucleus peptide: 7 peptides
  Nucleus spectra: 16 spectra
Akap8 (mouse)
  Nucleus peptide: 4 peptides
  Nucleus spectra: 12 spectra
Lmnb2 (mouse)
  Nucleus peptide: 10 peptides
  Nucleus spectra: 27 spectra
Ruvbl2 (mouse)
  Nucleus peptide: 12 peptides
  Nucleus spectra: 31 spectra
Dnaja3 (mouse)
  Nucleus peptide: 7 peptides
  Nucleus spectra: 28 spectra
[1]
  Nucleus peptide: 3 peptides
  Nucleus spectra: 9 spectra
Smc3 (mouse)
  Nucleus peptide: 12 peptides
  Nucleus spectra: 23 spectra
Sall4 (mouse)
  Nucleus peptide: 6 peptides
  Nucleus spectra: 10 spectra
Uba1 (mouse)
  Nucleus peptide: 10 peptides
  Nucleus spectra: 18 spectra
Mllt4 (mouse)
  Nucleus peptide: 7 peptides
  Nucleus spectra: 11 spectra
Pou5f1 (mouse)
  Nucleus peptide: 4 peptides
  Nucleus spectra: 13 spectra
Sfrs17b (mouse)
  Nucleus peptide: 3 peptides
  Nucleus spectra: 8 spectra
Pcnt (mouse)
  Nucleus peptide: 5 peptides
  Nucleus spectra: 6 spectra
Cpsf1 (mouse)
  Nucleus peptide: 4 peptides
  Nucleus spectra: 8 spectra
Abce1 (mouse)
  Nucleus peptide: 7 peptides
  Nucleus spectra: 11 spectra
Dars (mouse)
  Nucleus peptide: 4 peptides
  Nucleus spectra: 6 spectra
Hells (mouse)
  Nucleus peptide: 6 peptides
  Nucleus spectra: 13 spectra
Rps6ka1 (mouse)
  Nucleus peptide: 3 peptides
  Nucleus spectra: 7 spectra
Xpo1 (mouse)
  Nucleus peptide: 4 peptides
  Nucleus spectra: 6 spectra
Alpl (mouse)
  Nucleus peptide: 12 peptides
  Nucleus spectra: 25 spectra
Eef2 (mouse)
  Nucleus peptide: 13 peptides
  Nucleus spectra: 24 spectra
Rad21 (mouse)
  Nucleus peptide: 3 peptides
  Nucleus spectra: 6 spectra
Aff4 (mouse)
  Nucleus peptide: 13 peptides
  Nucleus spectra: 25 spectra
Las1l (mouse)
  Nucleus peptide: 9 peptides
  Nucleus spectra: 21 spectra
